Assay results published in patent US20240279345A1, “ALPHA 5 BETA 1 INTEGRIN BINDING AGENTS AND USES THEREOF” (PASITHEA THERAPEUTICS CORP., priority 2021, published 2024).
Where a chain is given by its changes, count along the chain named. Blank lines part the entries; values can stand above or below the molecule they belong to.

Columns and labels:
[1] = molecular target: α5β1 integrin on U87MG cells (human, UniProt P08648 42-1049; P05556 21-798); experiment: cell-based or functional assay
[2] = molecular target: T1, α5β1 integrin on cells (PMA-activated K562 cells; U87MG cells) (human, UniProt P08648 42-1049; P05556 21-798); experiment: flow cytometry on PMA-activated K562 cells, hybridoma supernatant
T1 construct: Endogenous integrin of human cell lines; also called cellular α5β1 integrin; cell surface α5β1 integrin receptors
Method: Four weeks later cells from spleens and draining lymph nodes were fused to create hybridomas. […] In short, hybridoma supernatants were incubated with the activated K562 cells for 20 minutes, washed, then incubated with a fluorescent conjugated detecting antibody for 20 minutes, washed, resuspended in 7-Aminoactinomycin D, and Mean Fluorescence Intensity (MFI) measured on a Guava cytometer (Luminex Corporation, Austin, TX 78727).

[3] = molecular target: T2, recombinant human α5β1 integrin (human, UniProt P08648 42-995; P05556 21-728); experiment: ELISA, coated integrin, supernatant 1:10
T2 construct: also called rh-α5β1
Method: (§1) Plates were washed 3 times with Wash Buffer (1× Tris Buffered Saline containing 0.05% Tween20), blocked with 2% BSA in 1×TBS (made from 10× Thermo Scientific Blocker BSA (10×) in TBS; Thermo Fisher Scientific, Waltham, MA, cat. no. 37520) for 2 hours at room temperature (RT) then incubated with hybridoma supernatants diluted 1:10 with Standard Diluent (2% BSA, 1×TBS, 0.05% Tween20). […] Absorbance 450 nm was measured.

[4] = molecular target: T3, recombinant mouse α5β1 integrin (mouse, UniProt P11688 45-999; P09055 21-728); experiment: ELISA, coated integrin, supernatant 1:10
T3 construct: bought recombinant heterodimer (R&D Systems cat. 7728-A5) coated on the plate; also called rm-α5β1
Method: as §1

[5] = molecular target: T4, recombinant human α4β1 integrin (human, UniProt P13612 34-977; P05556 21-728); experiment: ELISA, coated integrin, supernatant 1:10
T4 construct: bought recombinant heterodimer (R&D Systems cat. 5668-A4) coated on the plate; also called rh-α4β1
Method: as §1

T1 sequence (P08648 42-1049 limits assumed, chain 1 of 2): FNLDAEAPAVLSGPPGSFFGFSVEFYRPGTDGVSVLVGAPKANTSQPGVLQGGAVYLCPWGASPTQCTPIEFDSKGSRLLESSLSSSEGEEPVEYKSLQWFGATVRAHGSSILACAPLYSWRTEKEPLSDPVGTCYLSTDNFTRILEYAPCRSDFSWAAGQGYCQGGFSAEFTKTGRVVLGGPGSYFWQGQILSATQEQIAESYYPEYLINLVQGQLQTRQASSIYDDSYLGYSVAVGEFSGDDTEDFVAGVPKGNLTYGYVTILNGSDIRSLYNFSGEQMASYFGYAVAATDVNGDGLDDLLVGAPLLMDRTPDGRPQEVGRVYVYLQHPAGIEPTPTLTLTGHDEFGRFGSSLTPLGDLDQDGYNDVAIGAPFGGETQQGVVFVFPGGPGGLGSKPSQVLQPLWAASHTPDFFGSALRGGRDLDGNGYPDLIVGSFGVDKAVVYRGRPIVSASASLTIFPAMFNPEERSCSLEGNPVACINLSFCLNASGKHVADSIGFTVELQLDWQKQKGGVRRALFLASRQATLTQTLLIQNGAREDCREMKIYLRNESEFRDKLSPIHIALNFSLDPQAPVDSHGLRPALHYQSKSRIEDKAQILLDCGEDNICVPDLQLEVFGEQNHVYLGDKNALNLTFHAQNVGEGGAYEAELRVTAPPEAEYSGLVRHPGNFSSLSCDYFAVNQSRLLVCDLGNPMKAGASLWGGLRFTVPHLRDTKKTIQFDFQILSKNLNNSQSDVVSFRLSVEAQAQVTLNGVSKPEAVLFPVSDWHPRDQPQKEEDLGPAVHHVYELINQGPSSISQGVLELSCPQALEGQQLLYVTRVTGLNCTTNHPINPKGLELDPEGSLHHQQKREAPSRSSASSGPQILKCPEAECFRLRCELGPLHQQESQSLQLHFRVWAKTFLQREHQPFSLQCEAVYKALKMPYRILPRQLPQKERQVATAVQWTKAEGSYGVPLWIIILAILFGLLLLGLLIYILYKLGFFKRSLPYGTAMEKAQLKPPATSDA
T1 sequence (P05556 21-798 limits assumed, chain 2 of 2): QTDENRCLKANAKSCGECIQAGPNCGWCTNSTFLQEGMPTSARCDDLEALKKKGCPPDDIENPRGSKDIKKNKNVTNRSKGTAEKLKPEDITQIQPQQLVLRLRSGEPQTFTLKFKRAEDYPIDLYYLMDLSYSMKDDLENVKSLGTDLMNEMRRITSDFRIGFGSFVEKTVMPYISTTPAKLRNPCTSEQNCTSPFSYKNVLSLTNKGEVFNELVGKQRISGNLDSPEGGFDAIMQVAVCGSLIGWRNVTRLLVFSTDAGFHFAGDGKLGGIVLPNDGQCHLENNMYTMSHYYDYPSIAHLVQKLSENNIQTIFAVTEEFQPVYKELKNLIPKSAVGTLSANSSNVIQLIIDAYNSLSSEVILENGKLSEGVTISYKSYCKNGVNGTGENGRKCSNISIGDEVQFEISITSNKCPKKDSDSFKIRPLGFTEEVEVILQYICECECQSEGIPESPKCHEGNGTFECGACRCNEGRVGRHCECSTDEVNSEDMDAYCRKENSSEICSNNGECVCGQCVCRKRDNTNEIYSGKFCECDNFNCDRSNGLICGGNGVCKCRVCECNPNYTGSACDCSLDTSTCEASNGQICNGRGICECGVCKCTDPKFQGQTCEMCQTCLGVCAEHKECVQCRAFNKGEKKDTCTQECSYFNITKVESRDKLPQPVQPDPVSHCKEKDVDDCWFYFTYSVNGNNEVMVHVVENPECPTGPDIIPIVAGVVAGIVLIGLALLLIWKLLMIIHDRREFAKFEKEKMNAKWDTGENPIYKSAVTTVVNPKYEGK
T4 sequence (P13612 34-977 limits assumed, form in doubt, chain 1 of 2): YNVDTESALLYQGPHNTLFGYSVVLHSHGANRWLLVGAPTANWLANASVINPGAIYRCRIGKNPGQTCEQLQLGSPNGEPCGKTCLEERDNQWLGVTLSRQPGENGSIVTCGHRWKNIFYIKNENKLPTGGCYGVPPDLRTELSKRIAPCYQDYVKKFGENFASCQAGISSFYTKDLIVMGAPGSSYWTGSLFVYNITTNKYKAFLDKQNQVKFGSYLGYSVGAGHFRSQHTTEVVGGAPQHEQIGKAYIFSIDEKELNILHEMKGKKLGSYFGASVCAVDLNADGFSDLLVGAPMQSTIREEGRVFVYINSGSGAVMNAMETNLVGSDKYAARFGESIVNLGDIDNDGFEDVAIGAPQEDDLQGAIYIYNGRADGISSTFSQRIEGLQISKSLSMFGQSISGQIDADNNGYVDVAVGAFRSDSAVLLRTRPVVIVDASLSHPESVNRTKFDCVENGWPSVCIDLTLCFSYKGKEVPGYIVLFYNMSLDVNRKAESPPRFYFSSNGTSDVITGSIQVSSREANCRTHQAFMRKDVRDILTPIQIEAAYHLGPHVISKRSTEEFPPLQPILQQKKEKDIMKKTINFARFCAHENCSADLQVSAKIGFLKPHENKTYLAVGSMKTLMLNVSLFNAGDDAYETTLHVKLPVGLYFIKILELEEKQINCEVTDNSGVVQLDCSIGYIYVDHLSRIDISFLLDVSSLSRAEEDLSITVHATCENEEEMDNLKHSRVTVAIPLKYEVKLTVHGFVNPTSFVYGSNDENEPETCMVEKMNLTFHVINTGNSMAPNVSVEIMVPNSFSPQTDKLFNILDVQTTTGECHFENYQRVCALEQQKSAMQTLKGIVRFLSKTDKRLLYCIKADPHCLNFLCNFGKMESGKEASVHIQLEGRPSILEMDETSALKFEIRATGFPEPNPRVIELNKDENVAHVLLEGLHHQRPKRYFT
T4 sequence (P05556 21-728 limits assumed, form in doubt, chain 2 of 2): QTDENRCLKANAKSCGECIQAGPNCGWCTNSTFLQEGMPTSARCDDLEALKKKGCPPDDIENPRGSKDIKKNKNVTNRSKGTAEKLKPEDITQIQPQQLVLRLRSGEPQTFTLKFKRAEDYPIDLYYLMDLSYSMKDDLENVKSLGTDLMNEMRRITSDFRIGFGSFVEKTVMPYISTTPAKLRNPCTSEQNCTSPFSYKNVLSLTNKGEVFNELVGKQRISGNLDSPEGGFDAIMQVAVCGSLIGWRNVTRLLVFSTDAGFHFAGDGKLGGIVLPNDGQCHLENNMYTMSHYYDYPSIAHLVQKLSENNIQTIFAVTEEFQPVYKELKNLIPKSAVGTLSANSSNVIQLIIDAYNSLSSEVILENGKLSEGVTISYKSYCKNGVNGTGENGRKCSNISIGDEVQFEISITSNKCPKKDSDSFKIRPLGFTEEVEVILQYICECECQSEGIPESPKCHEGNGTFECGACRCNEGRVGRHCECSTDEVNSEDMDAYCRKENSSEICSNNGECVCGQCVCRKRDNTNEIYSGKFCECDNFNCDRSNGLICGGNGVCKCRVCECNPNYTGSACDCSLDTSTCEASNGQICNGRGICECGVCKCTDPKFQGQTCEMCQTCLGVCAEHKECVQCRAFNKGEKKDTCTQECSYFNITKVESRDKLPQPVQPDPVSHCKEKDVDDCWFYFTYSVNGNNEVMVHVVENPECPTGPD
T2 sequence (P08648 42-995 limits assumed, form in doubt, chain 1 of 2): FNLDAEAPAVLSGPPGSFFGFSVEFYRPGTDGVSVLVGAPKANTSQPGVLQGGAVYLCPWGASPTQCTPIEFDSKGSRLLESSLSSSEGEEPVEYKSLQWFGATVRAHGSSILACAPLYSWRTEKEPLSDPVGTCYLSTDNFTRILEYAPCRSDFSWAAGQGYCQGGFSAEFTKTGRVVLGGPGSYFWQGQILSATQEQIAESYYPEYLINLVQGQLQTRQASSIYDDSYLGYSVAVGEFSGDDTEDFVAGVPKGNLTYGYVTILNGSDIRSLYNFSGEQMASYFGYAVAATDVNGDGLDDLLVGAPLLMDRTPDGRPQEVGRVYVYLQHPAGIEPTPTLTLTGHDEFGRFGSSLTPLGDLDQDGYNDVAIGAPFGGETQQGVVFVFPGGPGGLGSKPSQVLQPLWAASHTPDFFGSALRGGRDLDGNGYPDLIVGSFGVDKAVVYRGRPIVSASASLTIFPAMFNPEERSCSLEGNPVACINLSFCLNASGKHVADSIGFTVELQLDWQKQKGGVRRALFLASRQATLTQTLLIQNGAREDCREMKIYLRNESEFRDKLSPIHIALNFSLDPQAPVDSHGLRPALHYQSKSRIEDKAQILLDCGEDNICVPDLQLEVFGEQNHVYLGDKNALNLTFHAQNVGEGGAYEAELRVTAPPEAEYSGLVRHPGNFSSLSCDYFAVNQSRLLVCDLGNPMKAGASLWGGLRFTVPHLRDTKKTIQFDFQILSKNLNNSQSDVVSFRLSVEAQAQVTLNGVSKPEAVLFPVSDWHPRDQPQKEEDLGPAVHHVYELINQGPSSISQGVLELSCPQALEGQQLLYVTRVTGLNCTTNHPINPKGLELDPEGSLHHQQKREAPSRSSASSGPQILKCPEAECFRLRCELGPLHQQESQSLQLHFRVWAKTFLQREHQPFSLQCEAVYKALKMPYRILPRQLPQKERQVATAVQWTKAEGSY
T2 sequence (P05556 21-728 limits assumed, form in doubt, chain 2 of 2): as the sequence (P05556 21-728 limits assumed, form in doubt, chain 2 of 2) above

Cell Counts (Curve Bottom) [1]: 32000 cells | Cell Counts (Curve Top) [1]: 50000 cells
Molecule: IgG4 Isotype (antibody)

MFI [2]: 5500
B1: A2-7A05 (antibody, V domains shown)
VH: QVQLQQPGAELVKPGASVKLSCKASGYTFTIYWINWVKQRPGQGLEWIGKIYPGSISTDYNEKFKSKATLTVDTSSSTAYMQLSSLTSDDSAVYYCAITGTGGLAYWGQGTLVTVSA
VL: ENVLTQSPAIMSASLGEKVTMTCRASSSVNYMYWYQQKSDASPKLWIYFTSSLAPGVPGRFSGSGSGNSYSLTISTMEGEDAATYYCQQFTTSPFTFGSGTKLEIK
notes: mouse hybridoma antibody (supernatant, or purified by Protein A); also called antibody designated A2-7A05; A-7A05

MFI [2]: 4210
B2: A-14G08 (antibody, V domains shown)
VH: B1 VH
VL: B1 VL
notes: mouse hybridoma

Absorbance 450 nm [3]: 1.17 A450 | Absorbance 450 nm [4]: 0.11 A450 | Absorbance 450 nm [5]: 0.108 A450
B3: A-14G08 (antibody, V domains shown)
VH: B1 VH
VL: B1 VL
notes: mouse hybridoma supernatant

MFI [2]: 6570
B4: A-15H11 (antibody, V domains shown)
VH: B1 VH
VL: B1 VL
notes: mouse hybridoma

MFI [2]: 6260
B5: A2-7F01 (antibody, V domains shown)
VH: B1 VH with K50N, I56S, D59N, S66T, L104F
VL: B1 VL with T22S, G59T, Y70F, T76S, F90L, T92G, K102R
notes: mouse hybridoma antibody (supernatant, or purified by Protein A); also called antibody designated A2-7F01

Absorbance 450 nm [4]: 0.671 A450
B6: A-3A08 (antibody, V domains shown)
VH: QVQLKESGPGLVAPSQSLSITCTISGFSLTTYGVHWVRQPPGKGLEWLVVIWSDGSTTYNSALKSRLNITKDNSKSQVFLKMNSLQTDDTAMYYCVRHGGLLRRDAMDYWGQGTSVTVSS
VL: QIVLTQSPAIMSASLGERVTMTCTASSSVSSNSFHWYQQKPGSSPKLWLYSTSNLASGVPARFSGSGSGTSYSLTISSMEAEDAATYYCHQYLRSPPTFGGGTKLEIK

MFI [2]: 1610
B7: A-11G01 (antibody, V domains shown)
VH: B6 VH
VL: B6 VL
notes: mouse hybridoma

% Inhibition [1]: 78% | Cell Counts (Curve Bottom) [1]: 8040 cells | Cell Counts (Curve Top) [1]: 37200 cells
B8: C-14D12 IgG4 Chimera (antibody, V domains shown)
VH: QVQLKESGPDLVAPSQSLSITCTVSGFSLTDYGVHWVRQPPGKGLEWLVVIWSDGSTTYNSALKSRLSITKDTSKRQVFLKMNSLQTDDTAMYYCARHAPSFIRYGSRYDALDYWGQGTSVTVSS
VL: B6 VL with M21L, S30T, N32S, S33F, F34L, L49I, L93H

MFI [2]: 2020
B9: C-14D12 (antibody, V domains shown)
VH: B8 VH
VL: B6 VL with M21L, S30T, N32S, S33F, F34L, L49I, L93H
notes: mouse hybridoma antibody (supernatant, or purified by Protein A); also called antibody designated C-14D12; C-14D2

MFI [2]: 3400
B10: A2-9A11 (antibody, V domains shown)
VH: B6 VH
VL: B6 VL
notes: mouse hybridoma

MFI [2]: 4370
B11: A2-8H11 (antibody, V domains shown)
VH: B6 VH
VL: B6 VL
notes: mouse hybridoma

MFI [2]: 742
B12: A-7D06 (antibody, V domains shown)
VH: B6 VH
VL: B6 VL
notes: mouse hybridoma

Absorbance 450 nm [3]: 0.352 A450 | Absorbance 450 nm [5]: 0.0769 A450
B13: A-3A08 (antibody, V domains shown)
VH: B6 VH
VL: B6 VL
notes: mouse hybridoma supernatant

Absorbance 450 nm [3]: 0.687 A450 | Absorbance 450 nm [4]: 0.0959 A450 | Absorbance 450 nm [5]: 0.0801 A450
B14: A-4G02 (antibody, V domains shown)
VH: QVQLKESGPGLVAPSQSLSITCTISGFSLTSYGVHWVRQPPGKGLEWLVVIWSDGSTTYNSTLKSRLSISKDNSKSQVFFKMNSLQTDDTAMYYCARHYDYDGDWFAYWGQGTLVTVSA
VL: B6 VL with S28R, F34L, L49I
notes: mouse hybridoma supernatant

Absorbance 450 nm [3]: 0.519 A450 | Absorbance 450 nm [4]: 0.0766 A450 | Absorbance 450 nm [5]: 0.0843 A450
B15: A-11G01 (antibody, V domains shown)
VH: B6 VH
VL: B6 VL
notes: mouse hybridoma supernatant

% Inhibition [1]: 86% | Cell Counts (Curve Bottom) [1]: 4780 cells | Cell Counts (Curve Top) [1]: 33800 cells
B16: A-15B08 IgG4 Chimera (antibody, V domains shown)
VH: B14 VH
VL: B6 VL with S28R, F34L, L49I

Absorbance 450 nm [3]: 0.824 A450 | Absorbance 450 nm [4]: 0.0924 A450 | Absorbance 450 nm [5]: 0.0855 A450
B17: A-15B08 (antibody, V domains shown)
VH: B14 VH
VL: B6 VL with S28R, F34L, L49I
notes: mouse hybridoma supernatant in this assay

Absorbance 450 nm [3]: 0.613 A450 | Absorbance 450 nm [4]: 0.0755 A450 | Absorbance 450 nm [5]: 0.0848 A450
B18: A-7D06 (antibody, V domains shown)
VH: B6 VH
VL: B6 VL
notes: mouse hybridoma supernatant

MFI [2]: 2690
B19: C-8G11 (antibody, V domains shown)
VH: B8 VH
VL: B6 VL with M21L, S30T, N32S, S33F, F34L, L49I, L93H
notes: mouse hybridoma

MFI [2]: 1180
B20: A-3A08 (antibody, V domains shown)
VH: B6 VH
VL: B6 VL
notes: mouse hybridoma
